B1: mRNA-splicing (parent)
chain: AGUUGCUGCUGGGAGCUCCAGCACAGUGAAAUGGACAGAAGGGCAGAGCAA

Variants of: B1
Assay: exon inclusion enrichment index; higher = more inclusion; WT1 exon 5 minigene, HEK293

| Variant | exon inclusion enrichment index |
| --- | --- |
| AGUUAGGGAUGGGAGCUCCAGCACAGUGAAAUGGAGAGAAGGGCAGAGCAA | 0.000918 |
| AGUUAGGGAUGGGAGCUCCAGCACAGUGAAAUGGACAGACAGGCAGAGCAA | 0.00061 |
| AGUUAUAUAUGGGAGCUCCAGCACAGUGAAAUGGAAGGAAGGGCAGAGCAA | 0.0248 |
| AGUUCUAACAGGGAGCUCCAGCACAGUGAAAUGGACAGAAGGGCAGAGCAA | 0.064 |
| AGUUUCUUUUGCUAGCUCCAGCACAGUGAAAUGGACAGAAGGGCAGAGCAA | 0.0014 |
| AGUUGUAGACGGGAGCUCCAGCACAGUGAAAUGGACAGAAGGGCAGAGCAA | 0.322 |
| AGUUCCGACAGGGAGCUCCAGCACAGUGAAAUGGACAGAAGGGCAGAGCAA | 0.113 |
| AGUUGAAGAAGCCAGCUCCAGCACAGUGAAAUGGACAGAAGGGCAGAGCAA | 1.06 |
| AGUUUCUUUUGGGAGCUCCAGCACAAUGAAAUGGACAGAAGGGCAGAGCAA | 0.201 |
| AGUUCUUCUCGGAUGCUCCAGCACAGUGAAAUGGACAGAAGGGCAGAGCAA | 2.38 |
| AGUUACCACCGGGAGCUCCAGCACAGUGAAAGAGACAGAAGGGCAGAGCAA | 0.707 |
| AGUUGAAGAAGGGAGCUCCAGCACAGUGAAAACGACAGAAGGGCAGAGCAA | 0.991 |
| AGUUGAAGAAGGGAGCUCCAGCACAGUGAAAUGGACAGCAGGGCAGAGCAA | 0.201 |
| AGUUCACACAGGAAGCUCCAGCACAGUGAAAUGGACAGAAGGGCAGAGCAA | 0.277 |
| AGUUGCUGCUGGGAGCUCCAGCACAGUGAAAUGGACGGAAGGGCAGAGCAA | 0.438 |
| AGUUAGGGAUGGGAGCUCCAGCACAGUGUUAUGGACAGAAGGGCAGAGCAA | 0.000968 |
| AGUAGACGACGGGAGCUCCAGCACAGUGAAAUGGACAGAAGGGCAGAGCAA | 1.35 |
| AGUUGACGACGGGAGCUCCAGCACAGUGCAAUGGACAGAAGGGCAGAGCAA | 3.21 |
| AGUUAGGGAUGGGAGCUCCAGCACAGUGAAAUGCACAGAAGGGCAGAGCAA | 0.000973 |
| AGUUCGCGCCGGGAGCUCCAGCACACUGAAAUGGACAGAAGGGCAGAGCAA | 3.97 |
| AGUUUCUUUUGGGAGCUCCAGCACAGUGAAAUGGACAGAACGGCAGAGCAA | 0.706 |
| AGUUAUAAGUGGGAGCUCCAGCACAGUGAAAUGGACAGAAGGGCAGAGCAA | 0.0475 |
| AGUUGACGACGGGAGCUCCAGCACAGUGAAAUGGAUUGAAGGGCAGAGCAA | 1.97 |
| AGUUAUAUAUGUAAGCUCCAGCACAGUGAAAUGGACAGAAGGGCAGAGCAA | 0.00185 |
| AGUUUCUUUUGGGAGCUCCAGCAUGGUGAAAUGGACAGAAGGGCAGAGCAA | 0.363 |
| AGUUCGCGCCGGGAGCUCCAGCACAGUGAAAUGGACAGAAGCGCAGAGCAA | 4.75 |

| Variant | exon inclusion enrichment index |
| --- | --- |
| AGUAUAAGAAGGGAGCUCCAGCACAGUGAAAUGGACAGAAGGGCAGAGCAA | 0.0651 |
| AGUUUCUUUUGGGAGCUCCAGCAAAGUGAAAUGGACAGAAGGGCAGAGCAA | 0.116 |
| AGUUCGCGCCGGGAGCUCCAGCACGCUGAAAUGGACAGAAGGGCAGAGCAA | 4.8 |
| AGUUUCUUUUGGGAGCUCCAGCACAGUGAAAUGGACAGAAGGGCAAAGCAA | 0.192 |
| AGUUUCUUGCGGGAGCUCCAGCACAGUGAAAUGGACAGAAGGGCAGAGCAA | 0.741 |
| AGGUCGCGCCGGGAGCUCCAGCACAGUGAAAUGGACAGAAGGGCAGAGCAA | 1.32 |
| AGUUGAAGACAGGAGCUCCAGCACAGUGAAAUGGACAGAAGGGCAGAGCAA | 1.91 |
| AGUUCGCGCCGGGAGCUCCAGCACAGUGAAAUGGACAGAAGGGCAUUGCAA | 3.93 |
| AGUUCUUGACGGGAGCUCCAGCACAGUGAAAUGGACAGAAGGGCAGAGCAA | 1.69 |
| AGUUAUAUAUGGGAGCUCCAACACAGUGAAAUGGACAGAAGGGCAGAGCAA | 0.071 |
| ACGUGAAGAAGGGAGCUCCAGCACAGUGAAAUGGACAGAAGGGCAGAGCAA | 1.14 |
| AGUUGCUGCUGGGAGCUCCAGCACAGUGAAAUGGAAGGAAGGGCAGAGCAA | 0.0199 |
| AGUUGACGACGGGAGCUAAAGCACAGUGAAAUGGACAGAAGGGCAGAGCAA | 1.44 |
| AGUUCGCGCCGGGAGCUCCAGCACAGUGAAAUGGAAGGAAGGGCAGAGCAA | 2.14 |
| AGUUGAAGCAGGGAGCUCCAGCACAGUGAAAUGGACAGAAGGGCAGAGCAA | 0.234 |
| AGUUGACGACGGGAGCUCCAGCACAGUGAAACGGACAGAAGGGCAGAGCAA | 4.44 |
| AGUUCUUCUCGGGAGCUCCAGCACAGUGAAAUGGACAGAAGGGCAUAGCAA | 1.35 |
| AGUUACCACCGGGAGCUCCAGCACAAGGAAAUGGACAGAAGGGCAGAGCAA | 2.93 |
| AGUUCACACAGGGAGCUCCAGCACCAUGAAAUGGACAGAAGGGCAGAGCAA | 0.352 |
| AGUUUCUUUUGGGAGCUCCAGCACAGUGAAAUGACCAGAAGGGCAGAGCAA | 0.0912 |
| AGUUGAUGAAGGGAGCUCCAGCACAGUGAAAUGGACAGAAGGGCAGAGCAA | 0.333 |
| AGUUACCACCGGGAGCUCCAGCACAGUGGAAUGGACAGAAGGGCAGAGCAA | 3.4 |
| AGUUGCUGCUGGGAGCUCCAGCACAGUGAGAUGGACAGAAGGGCAGAGCAA | 0.182 |
| AGUUCCAUAUGGGAGCUCCAGCACAGUGAAAUGGACAGAAGGGCAGAGCAA | 0.077 |
| AGUUUUCACAGGGAGCUCCAGCACAGUGAAAUGGACAGAAGGGCAGAGCAA | 0.0434 |

— the RNAGym collection of RNA variant scans (doi:10.1101/gr.219683.116)
